The labels stand for the following.
B1: Coiled-coil alpha-helical rod protein 1 (Homo sapiens), Q8TD31 (parent)
chain: MFPPSGSTGLIPPSHFQARPLSTLPRMAPTWLSDIPLVQPPGHQDVSERRLDTQRPQVTMWERDVSSDRQEPGRRGRSWGLEGSQALSQQAEVIVRQLQELRRLEEEVRLLRETSLQQKMRLEAQAMELEALARAEKAGRAEAEGLRAALAGAEVVRKNLEEGSQRELEEVQRLHQEQLSSLTQAHEEALSSLTSKAEGLEKSLSSLETRRAGEAKELAEAQREAELLRKQLSKTQEDLEAQVTLVENLRKYVGEQVPSEVHSQTWELERQKLLETMQHLQEDRDSLHATAELLQVRVQSLTHILALQEEELTRKVQPSDSLEPEFTRKCQSLLNRWREKVFALMVQLKAQELEHSDSVKQLKGQVASLQEKVTSQSQEQAILQRSLQDKAAEVEVERMGAKGLQLELSRAQEARRRWQQQTASAEEQLRLVVNAVSSSQIWLETTMAKVEGAAAQLPSLNNRLSYAVRKVHTIRGLIARKLALAQLRQESCPLPPPVTDVSLELQQLREERNRLDAELQLSARLIQQEVGRAREQGEAERQQLSKVAQQLEQELQQTQESLASLGLQLEVARQGQQESTEEAASLRQELTQQQELYGQALQEKVAEVETRLREQLSDTERRLNEARREHAKAVVSLRQIQRRAAQEKERSQELRRLQEEARKEEGQRLARRLQELERDKNLMLATLQQEGLLSRYKQQRLLTVLPSLLDKKKSVVSSPRPPECSASAPVAAAVPTRESIKGSLSVLLDDLQDLSEAISKEEAVCQGDNLDRCSSSNPQMSS
partner: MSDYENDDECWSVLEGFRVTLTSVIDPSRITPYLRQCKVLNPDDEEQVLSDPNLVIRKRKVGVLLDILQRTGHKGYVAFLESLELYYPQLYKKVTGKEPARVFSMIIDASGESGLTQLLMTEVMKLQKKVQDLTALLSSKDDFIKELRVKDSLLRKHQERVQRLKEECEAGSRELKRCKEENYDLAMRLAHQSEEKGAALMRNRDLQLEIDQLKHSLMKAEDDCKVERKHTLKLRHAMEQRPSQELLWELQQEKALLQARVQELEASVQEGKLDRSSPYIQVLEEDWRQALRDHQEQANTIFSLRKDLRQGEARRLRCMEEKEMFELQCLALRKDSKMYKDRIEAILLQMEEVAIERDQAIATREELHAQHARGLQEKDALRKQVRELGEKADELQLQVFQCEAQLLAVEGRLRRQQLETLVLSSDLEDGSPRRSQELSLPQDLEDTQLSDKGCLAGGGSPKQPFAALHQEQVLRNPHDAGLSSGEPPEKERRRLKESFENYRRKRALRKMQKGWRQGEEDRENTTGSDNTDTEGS
B2: Atos homolog protein B (Homo sapiens), Q7L5A3 (parent)
chain: MRHVQAEPSPSSEPEAGPSQPPVRQGALQGGLLMGYSPAGGATSPGVYQVSIFSPPAGTSEPHRALKRQAPSTEGPRELKRGPGLGAREGLPPEEPSTVGLLGPEGPGLGLGVASQHFSHRGLCVVEQRSSVTSSWTSGAWSPPCPPSNASCNTLHTRDWASPDPGGQGSLGESPGPAPPGQLHTLDTDLHSLAQIGGKSPVAGVGNGGSLWPRESPGTANGHSPEHTPPGPGPPGPCPTKRRLLPAGEAPDVSSEEEGPAPRRRRGSLGHPTAANSSDAKATPFWSHLLPGPKEPVLDPTDCGPMGRRLKGARRLKLSPLRSLRKGPGLLSPPSASPVPTPAVSRTLLGNFEESLLRGRFAPSGHIEGFTAEIGASGSYCPQHVTLPVTVTFFDVSEQNAPAPFLGIVDLNPLGRKGYSVPKVGTVQVTLFNPNQTVVKMFLVTFDFSDMPAAHMTFLRHRLFLVPVGEEGNANPTHRLLCYLLHLRFRSSRSGRLSLHGDIRLLFSRRSLELDTGLPYELQAVTEAPHNPRYSPLP
partner: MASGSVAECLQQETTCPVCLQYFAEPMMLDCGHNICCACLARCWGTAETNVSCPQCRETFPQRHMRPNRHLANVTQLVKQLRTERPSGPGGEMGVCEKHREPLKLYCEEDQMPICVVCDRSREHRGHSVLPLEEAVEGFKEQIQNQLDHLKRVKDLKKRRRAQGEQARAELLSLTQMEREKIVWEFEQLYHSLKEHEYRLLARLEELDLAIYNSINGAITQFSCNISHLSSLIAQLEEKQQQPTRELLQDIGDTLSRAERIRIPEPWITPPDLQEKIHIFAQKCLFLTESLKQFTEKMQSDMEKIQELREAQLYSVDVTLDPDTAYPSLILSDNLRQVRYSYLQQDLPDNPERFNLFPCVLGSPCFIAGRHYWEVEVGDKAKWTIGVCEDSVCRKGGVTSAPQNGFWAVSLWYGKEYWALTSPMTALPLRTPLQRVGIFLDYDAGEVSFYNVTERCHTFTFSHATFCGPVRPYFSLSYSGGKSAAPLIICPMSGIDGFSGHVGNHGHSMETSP
B3: TBC1 domain family member 22B (Homo sapiens), Q9NU19 (parent)
chain: MAAENSKQFWKRSAKLPGSIQPVYGAQHPPLDPRLTKNFIKERSKVNTVPLKNKKASSFHEFARNTSDAWDIGDDEEEDFSSPSFQTLNSKVALATAAQVLENHSKLRVKPERSQSTTSDVPANYKVIKSSSDAQLSRNSSDTCLRNPLHKQQSLPLRPIIPLVARISDQNASGAPPMTVREKTRLEKFRQLLSSQNTDLDELRKCSWPGVPREVRPITWRLLSGYLPANTERRKLTLQRKREEYFGFIEQYYDSRNEEHHQDTYRQIHIDIPRTNPLIPLFQQPLVQEIFERILFIWAIRHPASGYVQGINDLVTPFFVVFLSEYVEEDVENFDVTNLSQDMLRSIEADSFWCMSKLLDGIQDNYTFAQPGIQKKVKALEELVSRIDEQVHNHFRRYEVEYLQFAFRWMNNLLMRELPLRCTIRLWDTYQSEPEGFSHFHLYVCAAFLIKWRKEILDEEDFQGLLMLLQNLPTIHWGNEEIGLLLAEAYRLKYMFADAPNHYRR
partner: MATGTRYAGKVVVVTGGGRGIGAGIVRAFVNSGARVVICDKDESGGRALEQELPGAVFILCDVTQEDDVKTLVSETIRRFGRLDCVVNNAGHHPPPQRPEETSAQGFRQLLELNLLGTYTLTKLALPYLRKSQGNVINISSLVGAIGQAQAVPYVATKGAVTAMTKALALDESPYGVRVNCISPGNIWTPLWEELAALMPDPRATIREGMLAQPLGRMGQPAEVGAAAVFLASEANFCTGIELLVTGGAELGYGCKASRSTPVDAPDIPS
B4: Alpha-ketoglutarate-dependent dioxygenase alkB homolog 3 (Homo sapiens), Q96Q83 (parent)
chain: MEEKRRRARVQGAWAAPVKSQAIAQPATTAKSHLHQKPGQTWKNKEHHLSDREFVFKEPQQVVRRAPEPRVIDREGVYEISLSPTGVSRVCLYPGFVDVKEADWILEQLCQDVPWKQRTGIREDITYQQPRLTAWYGELPYTYSRITMEPNPHWHPVLRTLKNRIEENTGHTFNSLLCNLYRNEKDSVDWHSDDEPSLGRCPIIASLSFGATRTFEMRKKPPPEENGDYTYVERVKIPLDHGTLLIMEGATQADWQHRVPKEYHSREPRVNLTFRTVYPDPRGAPW
B5: Syntaxin-3 (Homo sapiens), Q13277 (parent)
chain: MKDRLEQLKAKQLTQDDDTDAVEIAIDNTAFMDEFFSEIEETRLNIDKISEHVEEAKKLYSIILSAPIPEPKTKDDLEQLTTEIKKRANNVRNKLKSMEKHIEEDEVRSSADLRIRKSQHSVLSRKFVEVMTKYNEAQVDFRERSKGRIQRQLEITGKKTTDEELEEMLESGNPAIFTSGIIDSQISKQALSEIEGRHKDIVRLESSIKELHDMFMDIAMLVENQGEMLDNIELNVMHTVDHVEKARDETKKAVKYQSQARKKLIIIIVLVVVLLGILALIIGLSVGLN
B6: Chaperone Ric-8A (Homo sapiens), Q9NPQ8 (parent)
chain: MEPRAVAEAVETGEEDVIMEALRSYNQEHSQSFTFDDAQQEDRKRLAELLVSVLEQGLPPSHRVIWLQSVRILSRDRNCLDPFTSRQSLQALACYADISVSEGSVPESADMDVVLESLKCLCNLVLSSPVAQMLAAEARLVVKLTERVGLYRERSFPHDVQFFDLRLLFLLTALRTDVRQQLFQELKGVRLLTDTLELTLGVTPEGNPPPTLLPSQETERAMEILKVLFNITLDSIKGEVDEEDAALYRHLGTLLRHCVMIATAGDRTEEFHGHAVNLLGNLPLKCLDVLLTLEPHGDSTEFMGVNMDVIRALLIFLEKRLHKTHRLKESVAPVLSVLTECARMHRPARKFLKAQVLPPLRDVRTRPEVGEMLRNKLVRLMTHLDTDVKRVAAEFLFVLCSESVPRFIKYTGYGNAAGLLAARGLMAGGRPEGQYSEDEDTDTDEYKEAKASINPVTGRVEEKPPNPMEGMTEEQKEHEAMKLVTMFDKLSRNRVIQPMGMSPRGHLTSLQDAMCETMEQQLSSDPDSDPD
B7: Zyxin (Homo sapiens), Q15942 (parent)
chain: MAAPRPSPAISVSVSAPAFYAPQKKFGPVVAPKPKVNPFRPGDSEPPPAPGAQRAQMGRVGEIPPPPPEDFPLPPPPLAGDGDDAEGALGGAFPPPPPPIEESFPPAPLEEEIFPSPPPPPEEEGGPEAPIPPPPQPREKVSSIDLEIDSLSSLLDDMTKNDPFKARVSSGYVPPPVATPFSSKSSTKPAAGGTAPLPPWKSPSSSQPLPQVPAPAQSQTQFHVQPQPQPKPQVQLHVQSQTQPVSLANTQPRGPPASSPAPAPKFSPVTPKFTPVASKFSPGAPGGSGSQPNQKLGHPEALSAGTGSPQPPSFTYAQQREKPRVQEKQHPVPPPAQNQNQVRSPGAPGPLTLKEVEELEQLTQQLMQDMEHPQRQNVAVNELCGRCHQPLARAQPAVRALGQLFHIACFTCHQCAQQLQGQQFYSLEGAPYCEGCYTDTLEKCNTCGEPITDRMLRATGKAYHPHCFTCVVCARPLEGTSFIVDQANRPHCVPDYHKQYAPRCSVCSEPIMPEPGRDETVRVVALDKNFHMKCYKCEDCGKPLSIEADDNGCFPLDGHVLCRKCHTARAQT
B8: Ligand of Numb protein X 2 (Homo sapiens), Q8N448 (parent)
chain: MGTTSDEMVSVEQTSSSSLNPLCFECGQQHWTRENHLYNYQNEVDDDLVCHICLQPLLQPLDTPCGHTFCYKCLRNFLQEKDFCPLDRKRLHFKLCKKSSILVHKLLDKLLVLCPFSSVCKDVMQRCDLEAHLKNRCPGASHRRVALERRKTSRTQAEIENENGPTLLDPAGTLSPEADCLGTGAVPVERHLTSASLSTWSEEPGLDNPAFEESAGADTTQQPLSLPEGEITTIEIHRSNPYIQLGISIVGGNETPLINIVIQEVYRDGVIARDGRLLAGDQILQVNNYNISNVSHNYARAVLSQPCNTLHLTVLRERRFGNRAHNHSDSNSPREEIFQVALHKRDSGEQLGIKLVRRTDEPGVFILDLLEGGLAAQDGRLSSNDRVLAINGHDLKYGTPELAAQIIQASGERVNLTIARPGKPQPGNTIREAGNHSSSSQHHTPPPYYSRPSSHKDLTQCVTCQEKHITVKKEPHESLGMTVAGGRGSKSGELPIFVTSVPPHGCLARDGRIKRGDVLLNINGIDLTNLSHSEAVAMLKASAASPAVALKALEVQIVEEATQNAEEQPSTFSENEYDASWSPSWVMWLGLPSTLHSCHDIVLRRSYLGSWGFSIVGGYEENHTNQPFFIKTIVLGTPAYYDGRLKCGDMIVAVNGLSTVGMSHSALVPMLKEQRNKVTLTVICWPGSLV
partner: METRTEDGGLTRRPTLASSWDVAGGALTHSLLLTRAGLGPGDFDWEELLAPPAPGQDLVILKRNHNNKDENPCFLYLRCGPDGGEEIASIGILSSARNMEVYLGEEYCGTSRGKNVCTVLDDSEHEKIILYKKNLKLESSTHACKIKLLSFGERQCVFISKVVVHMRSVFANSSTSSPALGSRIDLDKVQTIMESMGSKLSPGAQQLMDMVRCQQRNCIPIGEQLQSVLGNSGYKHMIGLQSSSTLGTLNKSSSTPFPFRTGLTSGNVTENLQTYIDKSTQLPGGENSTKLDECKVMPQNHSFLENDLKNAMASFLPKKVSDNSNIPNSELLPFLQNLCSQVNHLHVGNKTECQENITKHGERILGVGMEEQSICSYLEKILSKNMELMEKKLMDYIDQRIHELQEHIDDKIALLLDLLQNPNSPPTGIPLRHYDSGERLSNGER

The first experiment covers variants of B1. The following applies: with card9_human CARD9, Q9H257.
With W337R, the “effect of a mutation on the interaction” value is listed as “disrupting interaction strength”.

The variants in another experiment derive from B2. The following applies: with tri27_human TRIM27, P14373.
As to C381Y, the “effect of a mutation on the interaction” value is recorded as “disrupting interaction strength”.

A further experiment covers variants of B3. Conditions: with dhb14_human HSD17B14, Q9BPX1.
Regarding A349T, the “effect of a mutation on the interaction” value is “disrupting interaction strength”.

A further experiment covers variants of B4. Conditions: with ikzf1_human IKZF1, Q13422.
ikzf1_human IKZF1, Q13422, sequence (Q13422 whole entry): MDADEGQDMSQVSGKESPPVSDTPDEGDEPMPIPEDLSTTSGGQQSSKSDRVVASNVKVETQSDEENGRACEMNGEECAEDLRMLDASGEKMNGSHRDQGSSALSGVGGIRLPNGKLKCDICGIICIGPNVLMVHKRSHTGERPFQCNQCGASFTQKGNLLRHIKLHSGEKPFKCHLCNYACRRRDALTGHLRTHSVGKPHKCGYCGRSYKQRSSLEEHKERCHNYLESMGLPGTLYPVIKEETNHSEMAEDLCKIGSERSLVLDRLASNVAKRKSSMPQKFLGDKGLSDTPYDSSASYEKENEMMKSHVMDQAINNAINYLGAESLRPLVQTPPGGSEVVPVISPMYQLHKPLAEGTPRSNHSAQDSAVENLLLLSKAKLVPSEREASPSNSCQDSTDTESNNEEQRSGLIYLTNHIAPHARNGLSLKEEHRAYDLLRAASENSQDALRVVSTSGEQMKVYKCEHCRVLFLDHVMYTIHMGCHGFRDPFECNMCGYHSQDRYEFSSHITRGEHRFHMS
In the case of R64H, the “effect of a mutation on the interaction” value was “with no effect”.

The variants in the next experiment derive from B5. The following applies: with stx4_human STX4, Q12846.
stx4_human STX4, Q12846, sequence (Q12846 whole entry): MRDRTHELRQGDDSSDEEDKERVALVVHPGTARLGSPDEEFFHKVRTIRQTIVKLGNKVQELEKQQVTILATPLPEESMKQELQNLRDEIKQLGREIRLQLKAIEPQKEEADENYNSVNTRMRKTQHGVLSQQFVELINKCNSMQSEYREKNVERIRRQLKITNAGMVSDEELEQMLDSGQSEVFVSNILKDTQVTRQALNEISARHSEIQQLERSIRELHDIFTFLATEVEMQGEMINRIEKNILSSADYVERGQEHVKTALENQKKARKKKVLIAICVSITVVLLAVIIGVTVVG
With K199E, the “effect of a mutation on the interaction” value is given as “with no effect”.

In another experiment the parent is B6. Conditions: with praf1_human RABAC1, Q9UI14.
praf1_human RABAC1, Q9UI14, sequence (Q9UI14 whole entry): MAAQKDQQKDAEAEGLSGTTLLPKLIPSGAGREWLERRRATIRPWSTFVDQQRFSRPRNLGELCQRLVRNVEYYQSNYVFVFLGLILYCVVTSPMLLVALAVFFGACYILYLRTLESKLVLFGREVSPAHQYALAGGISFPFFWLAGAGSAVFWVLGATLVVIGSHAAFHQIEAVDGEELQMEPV
In the case of K319E, the “effect of a mutation on the interaction” value is “with no effect”.

Variants of B6 are the subject of another experiment. The following applies: with ubql1_human UBQLN1, Q9UMX0.
ubql1_human UBQLN1, Q9UMX0, sequence (Q9UMX0 whole entry): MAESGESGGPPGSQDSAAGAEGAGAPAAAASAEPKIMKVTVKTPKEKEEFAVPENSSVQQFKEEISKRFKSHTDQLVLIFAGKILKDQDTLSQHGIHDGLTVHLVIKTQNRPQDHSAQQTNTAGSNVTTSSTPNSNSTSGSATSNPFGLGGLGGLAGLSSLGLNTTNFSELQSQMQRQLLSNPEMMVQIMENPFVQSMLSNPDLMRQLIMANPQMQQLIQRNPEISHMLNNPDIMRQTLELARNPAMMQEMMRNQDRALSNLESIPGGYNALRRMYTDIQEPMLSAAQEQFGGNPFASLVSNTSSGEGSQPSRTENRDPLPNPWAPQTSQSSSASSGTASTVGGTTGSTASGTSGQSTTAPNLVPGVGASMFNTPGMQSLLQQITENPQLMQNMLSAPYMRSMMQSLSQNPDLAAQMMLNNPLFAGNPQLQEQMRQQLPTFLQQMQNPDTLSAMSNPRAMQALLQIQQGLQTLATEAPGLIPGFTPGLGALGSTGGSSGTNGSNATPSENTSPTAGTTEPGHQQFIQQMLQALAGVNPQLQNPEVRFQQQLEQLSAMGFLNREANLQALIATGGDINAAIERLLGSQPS
Consider K319E, for which the “effect of a mutation on the interaction” value is reported as “with no effect”.

The variants in a further experiment derive from B6. Conditions: with sdcb1_human SDCBP.
For K319E, the “effect of a mutation on the interaction” value is on record as “with no effect”.

The variants in the next experiment derive from B6. Conditions: with nutm1_human NUTM1, Q86Y26.
nutm1_human NUTM1, Q86Y26, sequence (Q86Y26 whole entry): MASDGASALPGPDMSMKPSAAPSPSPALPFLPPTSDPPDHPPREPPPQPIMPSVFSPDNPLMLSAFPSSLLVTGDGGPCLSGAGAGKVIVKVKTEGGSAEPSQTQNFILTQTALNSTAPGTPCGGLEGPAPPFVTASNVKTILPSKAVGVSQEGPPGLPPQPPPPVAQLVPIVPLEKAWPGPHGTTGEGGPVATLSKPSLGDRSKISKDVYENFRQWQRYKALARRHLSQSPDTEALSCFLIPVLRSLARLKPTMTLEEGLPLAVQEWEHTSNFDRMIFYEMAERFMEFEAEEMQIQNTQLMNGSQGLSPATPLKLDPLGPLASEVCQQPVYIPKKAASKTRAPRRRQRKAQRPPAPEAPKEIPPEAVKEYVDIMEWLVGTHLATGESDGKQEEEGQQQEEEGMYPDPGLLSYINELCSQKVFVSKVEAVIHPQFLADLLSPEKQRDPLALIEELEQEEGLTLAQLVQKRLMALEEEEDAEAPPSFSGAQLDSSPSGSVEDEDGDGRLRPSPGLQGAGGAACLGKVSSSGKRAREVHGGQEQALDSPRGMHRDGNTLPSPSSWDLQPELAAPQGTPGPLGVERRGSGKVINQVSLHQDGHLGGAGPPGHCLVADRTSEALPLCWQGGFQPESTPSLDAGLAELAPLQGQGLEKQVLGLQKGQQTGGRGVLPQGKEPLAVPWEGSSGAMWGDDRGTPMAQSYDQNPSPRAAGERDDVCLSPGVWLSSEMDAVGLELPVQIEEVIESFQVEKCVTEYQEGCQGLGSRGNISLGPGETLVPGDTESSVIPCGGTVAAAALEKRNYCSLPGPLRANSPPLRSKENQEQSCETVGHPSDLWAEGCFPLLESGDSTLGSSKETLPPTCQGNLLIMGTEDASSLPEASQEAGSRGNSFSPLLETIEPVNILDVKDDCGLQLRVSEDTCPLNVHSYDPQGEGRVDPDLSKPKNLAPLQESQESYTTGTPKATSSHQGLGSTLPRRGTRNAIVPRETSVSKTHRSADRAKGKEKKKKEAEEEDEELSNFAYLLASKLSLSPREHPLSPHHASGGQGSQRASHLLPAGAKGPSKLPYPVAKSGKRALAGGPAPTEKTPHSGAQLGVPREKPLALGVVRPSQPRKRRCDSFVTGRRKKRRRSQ
For K319E, the “effect of a mutation on the interaction” value is recorded as “with no effect”.

In another experiment the parent is B7. Conditions: with pf21a_human PHF21A.
For the variant R167G, the “effect of a mutation on the interaction” value is “with no effect”.

A further experiment covers variants of B8. The following applies: with paat_human PAAT.
As for P669A, the “effect of a mutation on the interaction” value is “with no effect”.

The record behind these values is IntAct's records for PubMed 29892012.
